B1: ATTO520-C2 maleimide double-labeled YW Fab 3D5 Q-body (Fab, V domains shown)
VH: QVQLQQSGPEDVKPGASVKISCKASGYTFTDYWMNWVKQSPGKGLEWIGDINPNNGGTSYNQKFKGRATLTVDKSSSTAYMELRSLTSEDSSVYYCESQSGAYWGQGTTVTVSA
VL: DILMTQTPSSLPVSLGDQASISCRSSQSIVHSNGNTYLEWYLQKPGQSPKLLIYKVSNRFSGVPDRFSGSGSGTDFTLKISRVEAEDLGVYYCFQGSHVPFTFGSGTKLEIK
notes: VH of antibody 3D5, as the VH of m7 with the stated change; numbers count on: Kabat numbering of the heavy chain; CH1 of the vector pUQ2, as in m7; VL of antibody 3D5, as the light chain of m7; CL of the vector pUQ2, as the light chain of m7; m9 labelled with two ATTO520 dyes; also called YW ATTO520; YW-ATTO520; source: E. coli SHuffle T7 Express with pGro7, purified (Talon IMAC), labelled, …
B2: 5-TAMRA C6 maleimide double-labeled wild-type Fab 3D5 Q-body (Fab, V domains shown)
VH: B1 VH with W33Y
VL: B1 VL
notes: VH of antibody 3D5, as in m7; CH1 of the vector pUQ2, as in m7; VL of antibody 3D5, as the light chain of m7; CL of the vector pUQ2, as the light chain of m7; m7 labelled with two dyes; also called Wild-type TAMRA; source: E. coli SHuffle T7 Express with pGro7, purified (Talon IMAC), labelled, purified (anti-FLAG M2 beads, G-25); not shown: Cys-tag, N-terminal, kept; His6, C-terminal, kept; myc, …
B3: 5-TAMRA C6 maleimide double-labeled WW Fab 3D5 Q-body (Fab, V domains shown)
VH: B1 VH with Y32W
VL: B1 VL
notes: VH of antibody 3D5, as the VH of m7 with the stated changes; numbers count on: Kabat numbering of the heavy chain; CH1 of the vector pUQ2, as in m7; VL of antibody 3D5, as the light chain of m7; CL of the vector pUQ2, as the light chain of m7; m8 labelled with two dyes; also called WW TAMRA; source: E. coli SHuffle T7 Express with pGro7, purified (Talon IMAC), labelled, purified (anti-FLAG M2 …)
B4: ATTO520-C2 maleimide double-labeled wild-type Fab 3D5 Q-body (Fab, V domains shown)
VH: B1 VH with W33Y
VL: B1 VL
notes: VH of antibody 3D5, as in m7; CH1 of the vector pUQ2, as in m7; VL of antibody 3D5, as the light chain of m7; CL of the vector pUQ2, as the light chain of m7; m7 labelled with two ATTO520 dyes; also called Wild-type ATTO520; source: E. coli SHuffle T7 Express with pGro7, purified (Talon IMAC), labelled, purified (anti-FLAG M2 beads, G-25); not shown: Cys-tag, N-terminal, kept; His6, C-terminal, …
B5: ATTO520-C2 maleimide double-labeled WW Fab 3D5 Q-body (Fab, V domains shown)
VH: B1 VH with Y32W
VL: B1 VL
notes: VH of antibody 3D5, as the VH of m7 with the stated changes; numbers count on: Kabat numbering of the heavy chain; CH1 of the vector pUQ2, as in m7; VL of antibody 3D5, as the light chain of m7; CL of the vector pUQ2, as the light chain of m7; m8 labelled with two ATTO520 dyes; also called WW ATTO520; WW-ATTO520; source: E. coli SHuffle T7 Express with pGro7, purified (Talon IMAC), labelled, …
B6: 5-TAMRA C6 maleimide double-labeled YW Fab 3D5 Q-body (Fab, V domains shown)
VH: B1 VH
VL: B1 VL
notes: VH of antibody 3D5, as the VH of m7 with the stated change; numbers count on: Kabat numbering of the heavy chain; CH1 of the vector pUQ2, as in m7; VL of antibody 3D5, as the light chain of m7; CL of the vector pUQ2, as the light chain of m7; m9 labelled with two dyes; also called YW TAMRA; source: E. coli SHuffle T7 Express with pGro7, purified (Talon IMAC), labelled, purified (anti-FLAG M2 …)
B7: anti-His scFv 3D5 WW variant (scFv, V domains shown)
VH: B1 VH with Y32W
VL: B1 VL
B8: anti-His Fab 3D5 WW variant (Fab, V domains shown)
VH: B1 VH with Y32W
VL: B1 VL
B9: 5-TAMRA C6 maleimide-labeled wild-type scFv 3D5 Q-body (scFv, V domains shown)
VH: B1 VH with W33Y
VL: B1 VL
notes: VH of antibody 3D5, as in m1; linker between VH and VL, as in m1; VL of antibody 3D5, as in m1; m1 labelled with one dye; also called wild-type scFv Q-body; source: E. coli SHuffle T7 Express with pGro7, purified (Talon IMAC), labelled, purified (anti-FLAG M2 beads, G-25); not shown: Cys-tag, N-terminal, kept; His6, C-terminal, kept; FLAG, C-terminal, kept
B10: anti-His Fab 3D5 (wild-type) (Fab, V domains shown)
VH: B1 VH with W33Y
VL: B1 VL
notes: VH of antibody 3D5; numbers count on: Kabat numbering of the heavy chain; CH1 of the vector pUQ2 (Fd = VH-CH1); VL of antibody 3D5; CL of the vector pUQ2 (Lc = VL-CL); Linker-less pUQ2 (3D5): the (GGGS)4 linker between Cys-tag and VH was removed; His6 is followed by myc on the heavy chain; also called wild-type Fab; source: E. coli SHuffle T7 Express with pGro7, purified (Talon IMAC); not shown: …
B11: anti-His Fab 3D5 YW variant (Fab, V domains shown)
VH: B1 VH
VL: B1 VL
notes: VH of antibody 3D5, as the VH of m7 with the stated change; numbers count on: Kabat numbering of the heavy chain; CH1 of the vector pUQ2, as in m7; VL of antibody 3D5, as the light chain of m7; CL of the vector pUQ2, as the light chain of m7; YW read as Tyr kept at 32H and Trp at 33H; source: E. coli SHuffle T7 Express with pGro7, purified (Talon IMAC); not shown: Cys-tag, N-terminal, kept; His6, …
B12: anti-His scFv 3D5 (wild-type) (scFv, V domains shown)
VH: B1 VH with W33Y
VL: B1 VL
notes: VH of antibody 3D5 (anti-C-terminal His tag); numbers count on: Kabat numbering of the heavy chain; linker between VH and VL of the VH-VL type scFv (synthesised gene in pEX-K4J2-1KTR); VL of antibody 3D5; VH-VL order, vector pSQ (3D5); also called wild-type scFv; source: E. coli SHuffle T7 Express with pGro7, purified (Talon IMAC); not shown: Cys-tag, N-terminal, kept; His6, C-terminal, kept; …

Results on twelve molecules are retold here after PMC8347774, “Construction of Fluorescent Immunosensor Quenchbody to Detect His-Tagged Recombinant Proteins Produced in Bioprocess” (Sensors (Basel, Switzerland), 2021).

Numbering of substitutions follows the chain as printed. The star is where a group is joined. Biotin = O=C1N[C@H]2[C@H](CS[C@H]2CCCCC(=O)*)N1

For one assay, the target named is T1, His6 peptide (antigen of the fluorescence assays) (synthetic peptide).
T1 construct: His6; The materials name only the biotinylated His6 peptide as synthesised; it may be the same peptide as m17
T1 chain: HHHHHH
Nature of the assay: other fluorescence titration; Q-body de-quenching in solution with His6 peptide at varied concentrations, PBST, plate reader; EC50 from a four-parameter logistic fit. Conditions: both partners purified.
One may read the EC50 as the concentration at which the effect is half-maximal. A high value points to a less potent agent. For the molecule B1, the concentration giving a half-maximal response (EC50) stood at 6.1 ± 1.4 µM.
Molecule B2 displayed an EC50 of 132 ± 34 µM. This EC50 is about 22-fold higher than that of the molecule before.
As for B3, the response was half-maximal at 89.5 ± 25.4 µM (EC50).
Consider B4, for which the concentration giving a half-maximal response (EC50) was found to be 13.8 ± 5.1 µM.
Molecule B5 yielded an EC50 of 8.8 ± 1.3 µM.
For the molecule B6, the half-maximal effective concentration (EC50) came out at 54.7 ± 9.5 µM.

The target in another assay is anti-SARS-CoV-2 VHH nanobody tagged with a hinge, 3xFLAG and C-terminal His tags. Nature of the assay: other fluorescence titration.
Conditions: not given
On to B1, for which the EC50 came out at 3 µM.
For B3, the EC50 was 11.5 µM.
In turn, B5 yielded a half-maximal effective concentration (EC50) of 10.7 µM. This EC50 and that of the molecule before are within 1.5-fold of each other.
In turn, B6 gave an EC50 of 11.1 µM. The EC50 values of the last two molecules are within 1.5-fold of each other.

In a further assay the target is T2, biotinylated His6 peptide (bio-EGGGSHHHHHH-COOH) (synthetic peptide, SMILES …).
T2 construct: spacer EGGGS and His6; Held on streptavidin biosensors by its biotin; source: synthetic peptide (PSSM-8 peptide synthesizer)
T2 chain: Biotin-EGGGSHHHHHH-OH
The assay is described as follows: BLI; biotinylated His6 peptide (100 nM) loaded on streptavidin biosensors; unlabeled protein or Q-body in two-fold dilutions in Kinetic buffer (phosphate, 150 mM NaCl, 0.002% Tween20, 0.1% BSA, pH 7.4); global fit, 1:1 model; Octet K2.
Conditions: not given
A word on the Kd: it is a measure of binding affinity in units of concentration. Read a low Kd as higher affinity. What is called koff is a measure of how fast the partners let go of each other. A higher koff goes with fast dissociation. One may read the kon as the second-order rate constant of association. Lower therefore signals slower complex formation. The molecule B7 returned a Kd of 0.00288 µM, an off-rate constant (koff) of 0.000835 s⁻¹ and a kon of 290000 M⁻¹ s⁻¹.
The corresponding values for B3 are 0.00172 µM, 0.000455 s⁻¹ and 264000 M⁻¹ s⁻¹.
In turn, B8 displayed a Kd of 0.00017 µM, a dissociation rate constant (koff) of 2.27e-05 s⁻¹ and a kon of 132000 M⁻¹ s⁻¹.

The same assay, now with this note: both partners purified.
B2 displayed a dissociation constant Kd of 0.00319 µM, a koff of 0.000672 s⁻¹ and a kon of 210000 M⁻¹ s⁻¹.
B9 had a dissociation constant (Kd) of 0.0268 µM, a koff of 0.00303 s⁻¹ and an on-rate constant (kon) of 113000 M⁻¹ s⁻¹.
B10 came in with a dissociation constant (Kd) of 0.00362 µM, an off-rate (koff) of 9.93e-05 s⁻¹ and an association rate constant (kon) of 27400 M⁻¹ s⁻¹.
B11 registered an equilibrium dissociation constant (Kd) of 0.00076 µM, an off-rate (koff) of 0.000105 s⁻¹ and an on-rate (kon) of 139000 M⁻¹ s⁻¹.
B6 yielded a Kd of 0.00131 µM, a koff of 0.000512 s⁻¹ and a kon of 392000 M⁻¹ s⁻¹.
In turn, B12 gave a dissociation constant (Kd) of 0.00503 µM, an off-rate (koff) of 0.000425 s⁻¹ and a kon of 84500 M⁻¹ s⁻¹.

The assay is the same for the next values; noted with them: record 2.
Take B3: the Kd was found to be 0.00319 µM.
